Test: soluble on expression in E. coli; label from the status in PepcDB or PDB records

Sequence	soluble on expression in E. coli
MDFVHCNKCFNRKPPDGFFISSCFHIFCTKCAKADLAVCLICKKNVRLVRLDGNISSGIKIYFADPIKMVADSLAKIQKKIDFQQSTRDHLVKYLTKEKEKKRQMEVYFRTKGQEFDSQRKKLAEATAWIQMAEKKLQASEEERVKAEREIEECQAKLKSMTNLMSADTLGMNSQTPFPFSLAESQETAPSLVESSANSTFNMVSPLVSSPASSPNSINYNSFFENGSRTRPESLNEEAMFNTMSSGQSANANTSESSAFSVAFNNIFTPSRNNMGDSSMINKTTANQTIMDKTSMSLENWRQNRANSFGVHDISKRDSSLPTGGGSAIRVHHFKQNSRITPIAQNRRSAAGFDRQQIQEMRRISSQPGYLAQRKPINGRSFIGPAD	not soluble
MVDSKKRPGKDLDRIDRNILNELQKDGRISNVELSKRVGLSPTPCLERVRRLERQGFIQGYTALLNPHYLDASLLVFVEITLNRGAPDVFEQFNAAVQKLEEIQECHLVSGDFDYLLKTRVPDMSAYRKLLGETLLRLPGVNDTRTYVVMEEVKQSNRLVIKTR	not soluble
DQLPGPVRVTVAGGGSARSAGESGFRRGGGRGARRGSDGGASDDDDDDGGGSGGGGGGRGFSTQGAGAKGGGSSGGSVQGIFHVKPYLEGRKCIDHGGEMVSRSAFERAGGSMMAKWYRSIKVLPEGVSLGKWLVSNGLP	not soluble
MPFCPEEFYCRITQNIESLNNIAKIQHAANTDYLTDLANRRAFFRSAESRIKEYINKKVPYCLAMIDVDFFKKVNDTYGHDSGDQVLKVIALYMRKHFGAGLTARLGGEEFAVLLHGLDADYLHNKLDDFRREIAVSSIPAGDTSISITLSLGVVFDSEDELSKQMNEADNALYAAKENGRNQIVVFGAELDDLEHHHHHH	not soluble
MSLNQSFTQFGDGYASTGTLNIGDVLDIMIWEAPPAVLFGGGLSSMGSGSAQQTKLPEQLVTARGTVSVPFVGDISVVGKTPGQVQEIIKGRLKKMANQPQVMVRLVQNNAANVSVIRAGNSVRMPLTAAGERVLDAVAAVGGSTANVQDTNVQLTRGNVVRTVALEDLVANPRQNILLRRGDVVTMITNPYTFTSMGAVGRTQEIGFSARGLSLSEAIGRMGGLQDRRSDARGVFVFRYTPLVELPAERQDKWIRQGYGSEAEIPTVYRVNMADAHSLFSMQRFPVKNKDVLYVSNAPLAEVQKFLSFVFSPVTSGANSINNLTNEGHHHHHH	not soluble
MGSDKIHHHHHHMSLNLRDLEYFYQLSKLRSFTNVAKHFRVSQPTISYAIKRLETYYDCDLFYKDSSHQVVDLTPEGELLAMRTNEILSELNHTKKAIHRSSMKDFKVGFPPIISSYLLSKQDNLNFFNALHMIYGGSNELLSLLLNEEIDSSLLGSLEKIKHPQLEIEELFQKEFFIIMSDSHPLANEKELGFKDLLNEDFILLGEHNIHFNAFNRLNEKYNQSANVVLKLDDAHTIKELVRKNLGISLMADIRLSEDFKNLVKVPFIEEDKQFFHINYAYQKNSILSESEKNFLEILKTLK	not soluble
MGSDKIHHHHHHMLLDTNIFSSFEDYSDISGKLNELSRRLNPKSILLKHPKSIEYLNTLDEDTKRILLSKLAFCDLLNDYPSPINDLEFNTNVGYLKGTNNDLENNLLYAVYTNSVTYLITENRMIHQKSTKLGLKDRVLYLNEALDFFKEFYSIQKRQILPQIKQRPITKVDVDDQIFDSLREEYPEFNNWYNEKAHLGRECWCYIKESGKLGAVLIFNGEDFDVIKTDPLLPEKRRFKICTFKVDQVGYKLGELLLKKAFDYCIDNSITETYLTHFAKSEFDYLVNLITEYGFIDIGTNENGENVFFKDLNPTPNQLMFCDYKDIFKKYYPLFYDGNRVKKLVVPIRPQYHEKLFTDYVKRTSITLNEYFGDFIIEGNTIKKAYISHSPIKNLKKGDILLFYRSEDHKELTSLGVLEEFKTNLTSPEEIINMVGKRTVYSSREIEEIVKKPASVMIFTMHLHLKSPIPLTVLKENNILKGPPQTITEITHGAYEKIRDLGGINDNLTIH	not soluble
MGSDKIHHHHHHVNELSADVVILGGGLVGMTLAIGLAKAGISSHVVDNSDPAAQTAEGFDGRASAISTASWNLYANLGMADELAPKGCPIEAIAVTDAMKPGRIDFKPGEGDGSLGRMYANRDLRIAMYAAAAREEAITFHTNANVIHRERGEHGVSVTLADGRILKGRLLVGAEGRRSPTRDEAGFTPARWDYGHRAIIAGLTHEKPHGNVAWEVFYPAGPFALLPLLDDEDGSHRSALVWTVAEKDASAVLAMPEPMFLDEVSKRMHEIFGEIRLASPRSSYPLNFHHTARIVEQRLALVGDAAHGMHPIAGQGLNVGLRDVAALVEVLADGVRLGLDVGDAQLLARYERWRAADTFMVATATDVLTRLFGLPGRVPSAIRRLGMAGVQRMGPLKRWFMDEARGMSGDLPKLLRAA	not soluble
MGNTMCPKMESAFSLLGKRWNGLIIHVLMDGPKRFKEITETIPMISQKMLAERLKELEQNEIVERQVLPETPVKVIYTLTEKGTALQAVFQEMQAWADQFCEPGDTVCEEEKLEHHHHHH	soluble
ISSEQDAINNRFLPTTDRFSERGSYGNFNYAAYQPEAAIGGEKNPLIVWLHGIGEVGTDINIPLLASNVARLTEDPIQSHFTSTGSGGQKGAYVLVPQSSIPWSQNQTASLMALIKAYVASHPDIDSRRIYLAGVSNGGGMTLDMGVAYPNYFAALVPIAASYSNQLTDNQITAAALKALKGQPMWLIHTRTDKTISADSSVLPFYKELLQAGAQNKWLSYYETNVGKHHSGVTYNGHWSWIYFLNDQV	not soluble
MGSDKIHHHHHHAPGQTAQPGRPPTQPQGWSMTVGLAPVYGMAWQGSKDTALSIFPDLRVNYKDALFLSVPEGLGWNAVNANGWKAGPLLKARFGRNEDDGGSPFQIAGGSDALRGMGDIGIAGEAGAFVEKRFGTRQQWRARAEVRQGFGGHEGIVGDISLNWSGRTGRTILSAGPRATFASREYMQTYFGVDAVQASRTGLAASRLGGGLVSYGLGASIVQPLDRRRAVTVFGGADRLGGEPAGSSLIRERGQRTQFVVGVGYGFRFGL	not soluble
SLLKLAIPKGRLEEKVMTYLKKTGVIFERESSILREGKDIVCFMVRPFDVPTYLVHGVADIGFCGTDVLLEKETSLIQPFFIPTNISRMVLAGPKGRGIPEGEKRIATKFPNVTQRYCESKGWHCRIIPLKGSVELAPIAGLSDLIVDITETGRTLKENNLEILDEIFVIRTHVVVNPVSYRTKREEVVSFLEKLQEVIEHDSNEQSRGEGGSHHHHHH	soluble
MALQVASAPHGSSEDSTSASLPANYPYHTRMRRNEYEKAKHDLQIELLKVQSWVKETGQRVVVLFEGRDAAGKGGTIKRFMEHLNPRGARIVALEKPSSQEQGQWYFQRYIQHLPTAGEMVFFDRSWYNRAGVERVMGFCSPLQYLEFMRQAPELERMLTNSGILLFKYWFSVSREEQLRRFISRRDDPLKHWKLSPIDIKSLDKWDDYTAAKQAMFFHTDTADAPWTVIKSDDKKRARLNCIRHFLHSLDYPDKDRRIAHEPDPLLVGPASRVIEEDEKVYAEAAAAPGHANLDIPA	not soluble
SISTHESQKLREYYRLLNLDEGCSVDDVRESFHKLARQYHPDSGSSDADSATFIKIEEAYRNVLSHAIKRMHAGQDKAEDAAEDEEEGKFKYNTPQHRHYLSFEGVGFGTPSQREKQYRQFRADRATEQVMEYQRQKLQREFFANSITVKDVRQSKQQKITQAIERLVEDLIQESMAKGDFDNLSGKGKPLKKFSGCSYIDPMTHNLNRILIDNGYQPEWILMQKEIKDTIEQLREALLMSRKKLGNPLSPTEQKQWAQVCEQFQEKIRKLNKRINDFNLIVPILTRQKVHFDAQKEIIRVQEMYGAFVEANEVTEENQTDVSQGEESKTPRVKAGFLNWLNLWKSIKI	soluble
MGSDKIHHHHHHSTPTEFKRPSLKVLFGSFVGEYPGIIAQEKGFFKAQGVDVELIHKRYIQLEQANFSAGKYDGMTSSLGNLIILSAINLDIQGVIVIDESTGADVVVAQPQIKTVADLKGKKLGANLGGFSELFITEMLKTNNLNSNDVNLVRLEALKIPQNLKKNFIQAGHTWEPYLSEAMKIGGNILFTSKQTPGLILDLMIFRGDVIRDRPGDIRAFVQGWLQASEYWKENVQEGNTIISKALKIPSNTISLEGISLTSLDENQNLFQFSNPNSIDKIAKVYADFFIRAGNLTRIPELKSLFNSSFLNPAS	not soluble
NVAYPLGEGLLSFAESLESQKIHFTTEVITSRIEPANRYVAEKLRITPGQDILYLERLRSIGDEKAMLIENRINIELCPGIVEIDFNQHNLFPTIESLSKRKIRYSESRYAARLIGNERGHFLDISEDAPVLHLEQLVFFSRELPVEFGNVWLKGNKYYLGTVLQRRELS	soluble
MRANLGVPSTIAQSRWAESATSFPTATVAAAGGKDIEIERDVAHNQPGGIFPNVIFLESLDFSACFVDAHQVFVSDGSVMFRRWDRQKKTGRKK	not soluble
MALPKLTDEQRKEALAKAAEARKARAELKEQLKRSDITLKEVLDKASSDEIIGKTKVSALLESLPKVGKVKAKEIMEELEIAQTRRLRGLGDRQRRALLERFGYSED	not soluble
MKKVLLIVISILFGSVLVGCQMNESNKTQDKIQSITGSVAYRERIALPDNAVVTVYLQDVSLADAPATVIAKQNFITNGMQVPLEFNLAYDSRKIKASHRYSVSARIEVDGKLRFITDTHYGVITDPEATKHVPMMLIGVHGE	not soluble
MTMEQLQTPPVVVEVCHTLDKKQLNAISKQVYETTLEAIERARRDSEVDSDLIYTRVGVRRFLDNCSEAYLDELIAKGLPTGRRLSDRKTCWSKHQLRSWLLENE	not soluble
MVSVEDYYTSEEKICDGIFVGNYGERKGSRYLFQIWDKVNEKIDAKLCIIGKGWSEIPKNSVYYGFVTEREKIDLLAKSKVFVFPSLYEGFALAVTEALSAYLPVVTWDLKWSERYPVAIRVTYPDISSFAEEVVKLLKDEKLRKSIGEKSREL	soluble
MSLELENFQEYNDPVLYDKENRYTGDIPFLLKWAGKVDGTIVDLACGTGRATIPLASKGYKLMGVDVHKGMLEAAREKSSRLNLPIEWIKQDCTKLSLNLMSPFIYSVGNVFQHFLTNEEQDSFLTSVNKHLKESGIFIFDTRFPSKEELLQPNTEEYWKSYQDTDTGQKVDVYTISQYDPLTQIQHYTMIRKSVNAEGLAVNEKRTNIRLRYVFPKEMERLLSANGFEIIDVYQDWQETPLTRDSDQMIYVCKKSSEGHHHHHH	soluble
MGHHHHHHSHMKAEGKKPISKIPKKGFVEVTELTDVTYTSNLVRLRPGHMNVVLILSNSTKTSLLQKFALEVYTFTGSSCLHFSFLSLDKHREWLEYLLEFAQDAAPIPNQYDKHFMERDYTGYVLALNGHKKYFCLFKPQKTVEEEEAIGSCSDVDSSLYLGESRGKPSCGLGSRPIKGKLSKLSLWMERLLEGSLQRFYIPSWPELD	not soluble
MGSDKIHHHHHHMTKTYHFIGIKGSGMSALALMLHQMGHKVQGSDVEKYYFTQRGLEQAGIQILPFDEKNITADVELIAGNAFRPDNNVEIAYVDAQGYTYKRYHEFLGEFMKGFTSLGVAGAHGKTSTTGLLAHVMRNITDTSFLIGDGTGRGSANAQYFVFESDEYERHFAPYHPEYSIITNIDFDHPDYFTSLEDVFNAFNDYAKQVKKALLVFGEDEQLRRITANAPIYYYGFEENNDFVAYDLKPSTSGSQFKVRHGEEELGEFQIPTFGKHNVMNATAVIANLYIAGFDLQLVAEHLKTFGGVKRRFTEKIVNDTVIIDDFAHHPTEIIATIDAARQKYPSKELVAIFQPHTFTRTIALLDEFADALNGADAVYLAQIYGSARETDNGQVKVEDLAAKINKKGGLVTVENTSPLLDHDNAVYVFMGAGDIQSYEYSFERLLSNLTNNVQ	not soluble
